This note sets out measurements from publication PMC9801508, “A Cell-Permeant Nanobody-Based Degrader That Induces Fetal Hemoglobin” (ACS Central Science, 2022).

Substitutions are numbered along the chain they refer to.

The target of test [1] is T1, BCL11A extended zinc finger domain (exZnF23) (Homo sapiens, UniProt Q9H165).
T1 construct: Monomeric by SEC-MALS; also called exZnF23A; BCL11A exZnF23; source: E. coli, purified
Put plainly: pull-down; wt2D9 and BCL11A (Figure S1b); details in the Supporting Information.

The target of test [2] is T1, BCL11A extended zinc finger domain …. Kind of test: pull-down; read by SDS-PAGE (Figure 1C); the legend names only an SDS-PAGE analysis; who was held is not told; methods in the Supporting Information. The note with it: both partners purified.
Test [3] concerns the target T2, endogenous, full-length BCL11A (Homo sapiens (HUDEP-2 cells), UniProt Q9H165).
T2 construct: BCL11A, transcription factor and repressor of fetal globin genes, endogenous in HUDEP-2 cells; also called endogenous BCL11A; source: endogenous, HUDEP-2 lysate; endogenous, in HUDEP-2 cells
Kind of test: pull-down; purified 2D9 or ZF5.3-2D9 added into the lysate of HUDEP-2 cells; endogenous BCL11A detected (the legend calls it immunoprecipitation). The note with it: one partner purified.

T1 sequence (Q9H165 whole entry, looked up, the tested form may be a part): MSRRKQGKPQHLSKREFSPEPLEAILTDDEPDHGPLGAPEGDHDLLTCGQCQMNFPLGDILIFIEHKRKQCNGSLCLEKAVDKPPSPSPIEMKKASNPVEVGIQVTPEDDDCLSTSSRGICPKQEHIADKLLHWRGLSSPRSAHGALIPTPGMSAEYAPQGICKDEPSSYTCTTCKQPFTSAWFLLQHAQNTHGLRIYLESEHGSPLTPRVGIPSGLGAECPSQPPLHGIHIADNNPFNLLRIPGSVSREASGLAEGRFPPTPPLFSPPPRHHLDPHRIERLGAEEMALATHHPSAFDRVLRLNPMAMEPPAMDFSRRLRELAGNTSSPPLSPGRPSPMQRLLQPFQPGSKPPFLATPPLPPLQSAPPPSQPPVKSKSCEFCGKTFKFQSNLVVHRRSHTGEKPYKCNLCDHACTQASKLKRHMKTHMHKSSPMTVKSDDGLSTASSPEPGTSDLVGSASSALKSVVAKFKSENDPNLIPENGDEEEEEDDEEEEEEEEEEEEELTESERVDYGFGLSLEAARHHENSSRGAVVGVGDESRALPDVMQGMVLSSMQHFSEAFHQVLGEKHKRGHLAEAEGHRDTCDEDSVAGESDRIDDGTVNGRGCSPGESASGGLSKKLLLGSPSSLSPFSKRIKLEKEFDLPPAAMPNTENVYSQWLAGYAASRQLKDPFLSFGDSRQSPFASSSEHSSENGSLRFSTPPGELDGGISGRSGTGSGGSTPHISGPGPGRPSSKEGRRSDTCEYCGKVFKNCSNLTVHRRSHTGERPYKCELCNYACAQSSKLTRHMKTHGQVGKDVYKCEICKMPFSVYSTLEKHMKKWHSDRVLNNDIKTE
T2 sequence (Q9H165 whole entry): as the sequence (Q9H165 whole entry, looked up, the tested form may be a part) above

B1: Nanobody wt2D9 (initial hit) (VHH)
VHH: QVQLVESGGGLVQAGGSLRLSCAASGSIFVNNAMGWYRQAPGKERELVAAISASGGSTYYADSVKGRFTISRDNAKNTVYLQMNSLKPEDTAVYYCAADQDVYPYEYWGQGTQVTVSS
notes: initial synthetic nanobody hit of the yeast surface display screen; parent of 2D9 (2D9_V102G): as the chain of PDB 7UTG with V instead of G at 102; source: E. coli
As for B1, the binding result in test [1] is “binds”.

B2: Nanobody 2D9_W108L (VHH)
VHH: B1 VHH with W108L
notes: wt2D9 is as 2D9 of PDB 7UTG but with V at 102; By its name a single mutant of wt2D9, a sibling of 2D9_V102G; the reversion at 102 against PDB 7UTG is worked out from the names
For the molecule B2, the binding result in test [2] is on record as “binds”.

B3: Nanobody 2D9 (2D9_V102G) (VHH)
VHH: B1 VHH with V102G
notes: also called Nb 2D9; source: purified
B3: the binding result in test [2] and in test [3] was “binds” throughout.
